Biological target: FVII-186, P08709
Sequence (P08709 whole entry, looked up): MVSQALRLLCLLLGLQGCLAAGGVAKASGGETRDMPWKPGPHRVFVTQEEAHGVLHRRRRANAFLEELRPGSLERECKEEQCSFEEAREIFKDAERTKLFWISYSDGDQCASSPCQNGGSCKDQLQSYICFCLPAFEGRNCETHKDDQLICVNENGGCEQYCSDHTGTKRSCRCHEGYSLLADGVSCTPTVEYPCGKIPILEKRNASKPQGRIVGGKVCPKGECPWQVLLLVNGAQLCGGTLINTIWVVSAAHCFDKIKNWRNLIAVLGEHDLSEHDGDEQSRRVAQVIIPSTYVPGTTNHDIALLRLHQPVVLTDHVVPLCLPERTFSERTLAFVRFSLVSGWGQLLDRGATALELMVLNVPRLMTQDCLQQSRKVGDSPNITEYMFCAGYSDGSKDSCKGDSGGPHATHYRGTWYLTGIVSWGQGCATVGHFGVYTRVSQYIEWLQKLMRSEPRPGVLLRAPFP

B1: SUMO protease (Invitrogen Cat. No. 12588-018) (protein)
chain: LVPELNEKDDDQVQKALASRENTQLMNRDNIEITVRDFKTLAPRRWLNDTIIEFFMKYIEKSTPNTVAFNSFFYTNLSERGYQGVRRWMKRKKTQIDKLDKIFTPINLNQSHWALGIIDLKKKTIGYVDSLSNGPNAMSFAILTDLQKYVMEESKHTIGEDFDLIHLDCPQQPNGYDCGIYVCMNTLYGSADAPLDFDYKDAIRMRRFIAHLILTDALK
cleavage of SUMO from FVII-186 (reducing SDS-PAGE): showed almost complete conversion of FVII-186 to the desired FVIIHC

— patent US20150353911
